Data taken from the RNAGym collection of RNA variant scans (doi:10.7554/elife.90254).

B1: LINE1-full (parent)
chain: UACGUAGGUGGUUUUCCCCUGAUAGUGCUAAGGGGGCCUGGAAGUUUGGACUGGGCAGAGCUCAACACAGCGUGGCAAAGUGGCUGUGGCUAGACUGCCUCUCUGGAUUCCUCGUCACUCAGCAGGGCAUCUCUGAGAGAAAUGCC

Variants of: B1
Experiment: self-cleavage, relative activity (ratio to wild type); higher = more cleavage; in vitro, sequencing; the parent is a self-cleaving ribozyme

Row | Variant | self-cleavage
1 | UACGUAGGUGGUUUUCCCCUGAUAGUGCUAAGGGGGCCUGGAAGUUUGAACUGGGCAGAGCUCAUCACAGCGUGGCAAAGUGGCUGUGGCUAGACUGCCUCUCUGGAUUCCUCGUCACUCAGCAGGGCAUCUCUGAGAGAAAUGCC | 0.04
2 | UACGUAGGUGGUUUUCCCCUGAUAGUGCUAAGGGGGCCUGGAAGUUUGAACUGGGCAGAGCUCAACACAGCGUGGCAAAGUGGCUGUGGCUAGACUGCCUCUCUGGAUUCCUCGUCACUCAGCAGGGCAUCUCUGAGGGAAAUGCC | 1.11
3 | UACGUAGGUGGUUUUCCCCUGAUAGUGCUAAGGGGGCCUGGAAGUUUUGACUGGGCAGAGCUCAACACAGCGUGGCAAAGUGGCUGUGGCUAGACUGCCUCCCUGGAUUCCUCGUCACUCAGCAGGGCAUCUCUGAGAGAAAUGCC | 1.43
4 | UACGUAGGUGGUUUUCCCCUGAUAGUGCUAAGGGGGCCUGGAAGUUUUGACUGGGCAGAGCUCAACACAGCGUGGCAAAGUGGCUGUGGCUAGACUGCCUCUCUGGAUUCCUCGUCACUCAGCAGGGCAUCCCUGAGAGAAAUGCC | 1.12
5 | UACGUAGGUGGUUUUCCCCUGAUAGUGCUAAGGGGGCCUGGAAGUUUGAACUGGGCAGAGCUCAACACAGCGUGGCAAAGUGGCUGUGGCUAGACUGCCUCUCUGGAUUCCUCGUCACUCAGCAGGGCAUCUCUGAGAGAAAUGCC | 1
6 | UACGUAGGUGGUUUUCCCCUGAUAGUGCUAAGGGGGCCUGGAAGUUUUGACUGGGCAGAGCUCAACACAGCGUGGCAAAGUGGCUGUGGCUAGACUGCCUCUCUGGAUUCCUCGUCACUCAGCAGGGCAUCUCCGAGAGAAAUGCC | 1.14
7 | UACGUAGGUGGUUUUCCCCUGAUAGUGCUAAGGGGGCCUGGAAGUUUGAGCUGGGCAGAGCUCAACACAGCGUGGCAAAGUGGCUGUGGCUAGACUGCCUCUCUGGAUUCCUCGUCACUCAGCAGGGCAUCUCUGAGAGAAAUGCC | 0.82
8 | UACGUAGGUGGUUUUCCCCUGAUAGUGCUAAGGGGGCCUGGAAGUUUUGACUGGGCAGAGCUCAACACAGCGUGGCAAAGUGGCUGUGGCUAGACUGCCUCUCUGGAUUCCUCGUCACUCGGCAGGGCAUCUCUGAGAGAAAUGCC | 0.99
9 | UACGUAGGUGGUUUUCCCCUGAUAGUGCUAAGGGGGCCUGGAAGUUUUGACUGGGCAGAGCUCAACACAGCGUGGCAAAGUGGCUGUGGCUAGACUGCCUCUCUGGAUUCCUCGUCACUCAGCAAGGCAUCUCUGAGAGAAAUGCC | 1.17
10 | UACGUAGGUGGUUUUCCCCUGAUAGUGCUAAGGGGGCCUGGAAGUUUUGACUGGGCAGAGCUCAACACAGCGUGGCAAAGUGGCUGUGGCUAGACUGCCUCUCUGGACUCCUCGUCACUCAGCAGGGCAUCUCUGAGAGAAAUGCC | 1.27
11 | UACGUAGGUGGUUUUCCCCUGAUAGUGCUAAGGGGGCCUGGAAGUUUGAACUGGGCAGAGCUCAACGCAGCGUGGCAAAGUGGCUGUGGCUAGACUGCCUCUCUGGAUUCCUCGUCACUCAGCAGGGCAUCUCUGAGAGAAAUGCC | 0.56
12 | UACGUAGGUGGUUUUCCCCUGAUAGUGCUAAGGGGGCCUGGAAGUUUGAACUGGGCAGAGCUCAACACAGCGUGGCAAAGUGGCUGUGGCUAGACUGCCUCUCUGGAUUCCUCGUCUCUCAGCAGGGCAUCUCUGAGAGAAAUGCC | 1.05
13 | UACGUAGGUGGUUUUCCCCUGAUAGUGCUAAGGGGGCCUGGAAGUUUGAACUGGGCAGGGCUCAACACAGCGUGGCAAAGUGGCUGUGGCUAGACUGCCUCUCUGGAUUCCUCGUCACUCAGCAGGGCAUCUCUGAGAGAAAUGCC | 0.02
14 | UACGUAGGUGGUUUUCCCCUGAUAGUGCUAAGGGGGCCUGGAAGUUUGAACUGGGCAGAGCUCUACACAGCGUGGCAAAGUGGCUGUGGCUAGACUGCCUCUCUGGAUUCCUCGUCACUCAGCAGGGCAUCUCUGAGAGAAAUGCC | 0.33
15 | UACGUAGGUGGUUUUCCCCUGAUAGUGCUAAGGGGGCCUGGAAGUUUUGACUGGGCAGAGCUCAACACAGCGUGGCAAAGUGGCUGUGGCUAGACUGCCUCUCUGGAUUCCUCGUCACCCAGCAGGGCAUCUCUGAGAGAAAUGCC | 1.95
16 | UACGUAGGUGGUUUUCCCCUGAUAGUGCUAAGGGGGCCUGGAAGUUUUGACUGGGCAGAGCUCAACACAGCGUGGCAAAGUGGCUGUGGCUAGACUGCCUCUCUGGAUUCCUCGUCACUCAGCAGGGCAUCUCUGGGAGAAAUGCC | 1.19
17 | UACGUAGGUGGUUUUCCCCUGAUAGUGCUAAGGGGGCCUGGAAGUUUGAACUGGGCAGAGCUCAACACAGCGUGGCAAAGUGGCUGUGGCUAGACUGCCUCUCUGGAUUCCUCGUCACUCAGCGGGGCAUCUCUGAGAGAAAUGCC | 0.55
18 | UACGUAGGUGGUUUUCCCCUGAUAGUGCUAAGGGGGCCUGGAAGUUUUGACUGGGCAGAGCUCAACACAGCGUGGCAAAGUGGCUGUGGCUAGACUGCCUCUCUGGAUACCUCGUCACUCAGCAGGGCAUCUCUGAGAGAAAUGCC | 1.42
19 | UACGUAGGUGGUUUUCCCCUGAUAGUGCUAAGGGGGCCUGGAAGUUUGAACUGGGCAGAGCUCAACACGGCGUGGCAAAGUGGCUGUGGCUAGACUGCCUCUCUGGAUUCCUCGUCACUCAGCAGGGCAUCUCUGAGAGAAAUGCC | 0.36
20 | UACGUAGGUGGUUUUCCCCUGAUAGUGCUAAGGGGGCCUGGAAGUUUUGACAGGGCAGAGCUCAACACAGCGUGGCAAAGUGGCUGUGGCUAGACUGCCUCUCUGGAUUCCUCGUCACUCAGCAGGGCAUCUCUGAGAGAAAUGCC | 0.81
